Measurements as given in PMC7584586.

Assays:
[1] = biological target: TfiA, yeast two-hybrid fusion (Helicobacter pylori); experiment: two-hybrid; pGBT9 bait and pGAD424 prey in S. cerevisiae PJ69-4A; lacZ reporter, β-galactosidase activity in cell extracts with ONPG
[2] = biological target: TfiT, yeast two-hybrid fusion (Helicobacter pylori); experiment: as above

Substance	lacZ fold increase relative to the self-activation control of the bait vector [1]	lacZ reporter activity (Miller units) [1]	lacZ fold increase relative to the self-activation control of the bait vector [2]	lacZ reporter activity (Miller units) [2]
TfiA, yeast two-hybrid fusion (natural protein)	27.4 fold	129 Miller units	47.2 fold	89.8 Miller units
TfiT, yeast two-hybrid fusion (enzyme)	12.9 fold	60.8 Miller units		
